Data on 7 molecules can be found in patent US20150010932A1 (SALK INSTITUTE FOR BIOLOGICAL STUDIES, published 2015).

Changes are numbered by the printed parent chain. Some results are limits rather than exact numbers.

The labels stand for the following.
B1: nLuc-linker-HA (other)
chain: MEDAKNIKKGPAPFYPLEDGTAGEQLHKAMKRYALVPGTIAFTDAHIEVDITYAEYFEMSVRLAEAMKRYGLNTNHRIVVCSENSLQFFMPVLGALFIGVAVAPANDIYNERELLNSMGISQPTVVFVSKKGLQKILNVQKKLPIIQKIIIMDSKTDYQGFQSMYTFVTSHLPPGFNEYDFVPESFDRDKTIALIMNSSGSTGLPKGVALPHRTACVRFSHARDPIFGNQIIPDTAILSVVPFHHGFGMFTTLGYLICGFRVVLMYRFEEELFLRSLQDYKIQSALLVPTLFSFFAKSTLIDKYDLSNLHEIASGGAPLSKEVGEAVAKRFHLPGIRQGYGLTETTSAILITPEGDDKPGAVGKVVPFFEAKVVDLDTGKTLGVNQRGELCVRGPMIMSGYVNNPEATNALIDKDG
notes: Expressed from pLi635, no fusion partner; also called nLuc-HA; nLuc alone; not shown: linker-HA
B2: cLuc-linker-FLAG-Mdm4-111 (other)
chain: MSGYVNNPEATNALIDKDGWLHSGDIAYWDEDEHFFIVDRLKSLIKYKGYQVAPAELESILLQHPNIFDAGVAGLPDDDAGELPAAVVVLEHGKTMTEKEIVDYVASQVTTAKKLRGGVVFVDEVPKGLTGKLDARKIREILIKAKKGGKIAVGGGSGGGQISYASRGDYKDDDDKSGTSFSTSAQCSTSDSACRISPGQINQVRPKLPLLKILHAAGAQGEMFTVKEVMHYLGQYIMVKQLYDQQEQHMVYCGGDLLGELLGRQSFSVKDPSPLYDMLRKNLVTLAT
notes: range 2-111; Expressed from pLi354 with nLuc-p53; also called cLuc-Mdm4
B3: cLuc-linker-FLAG-FANCL_WT (other)
chain: MSGYVNNPEATNALIDKDGWLHSGDIAYWDEDEHFFIVDRLKSLIKYKGYQVAPAELESILLQHPNIFDAGVAGLPDDDAGELPAAVVVLEHGKTMTEKEIVDYVASQVTTAKKLRGGVVFVDEVPKGLTGKLDARKIREILIKAKKGGKIAVGGGSGGGQISYASRGDYKDDDDKSGAVTEASLLRQCPLLLPQNRSKTVYEGFISAQGRDFHLRIVLPEDLQLKNARLLCSWQLRTILSGYHRIVQQRMQHSPDLMSFMMELKMLLEVALKNRQELYALPPPPQFYSSLIEEIGTLGWDKLVYADTCFSTIKLKAEDASGREHLITLKLKAKYPAESPDYFVDFPVPFCASWTPQSSLISIYSQFLAAIESLKAFWDVMDEIDEKTWVLEPEKPPRSATARRIALGNNVSINIEVDPRHPTMLPECFFLGADHVVKPLGIKLSRNIHLWDPENSVLQNLKDVLEIDFPARAILEKSDFTMDCGICYAYQLDGTIPDQVCDNSQCGQPFHQICLYEWLRGLLTSRQSFNIIFGECPYCSKPITLKMSGRKH
notes: mature; Expressed from pLi505; also called cLuc-FANCL
B4: cLuc-linker-FLAG-FANCL_C307A (other)
chain: B3 chain with C484A
notes: mature; Expressed from pLi506
B5: nLuc-linker-HA-Mdm4_RING (other)
chain: MEDAKNIKKGPAPFYPLEDGTAGEQLHKAMKRYALVPGTIAFTDAHIEVDITYAEYFEMSVRLAEAMKRYGLNTNHRIVVCSENSLQFFMPVLGALFIGVAVAPANDIYNERELLNSMGISQPTVVFVSKKGLQKILNVQKKLPIIQKIIIMDSKTDYQGFQSMYTFVTSHLPPGFNEYDFVPESFDRDKTIALIMNSSGSTGLPKGVALPHRTACVRFSHARDPIFGNQIIPDTAILSVVPFHHGFGMFTTLGYLICGFRVVLMYRFEEELFLRSLQDYKIQSALLVPTLFSFFAKSTLIDKYDLSNLHEIASGGAPLSKEVGEAVAKRFHLPGIRQGYGLTETTSAILITPEGDDKPGAVGKVVPFFEAKVVDLDTGKTLGVNQRGELCVRGPMIMSGYVNNPEATNALIDKDGGGGSGGGQISYASRGYPYDVPDYAGSMEDCQNLLKPCSLCEKRPRDGNIIHGRTGHLVTCFHCARRLKKAGASCPICKKEIQLVIKVFIA
notes: range 427-490; Expressed from pLi283 and pLi285; also called nLuc-Mdm4_RING; Mdm4 RING domain
B6: cLuc-linker-HA-Mdm2_RING (other)
chain: MSGYVNNPEATNALIDKDGWLHSGDIAYWDEDEHFFIVDRLKSLIKYKGYQVAPAELESILLQHPNIFDAGVAGLPDDDAGELPAAVVVLEHGKTMTEKEIVDYVASQVTTAKKLRGGVVFVDEVPKGLTGKLDARKIREILIKAKKGGKIAVGGGSGGGQISYASRGYPYDVPDYAGSSSLPLNAIEPCVICQGRPKNGCIVHGKTGHLMACFTCAKKLKKRNKPCPVCRQPIQMIVLTYFP
notes: range 428-491; Expressed from pLi283; also called cLuc-Mdm2_RING; Mdm2 RING domain
B7: cLuc-linker-HA-Mdm2_RING-C464A (other)
chain: B6 chain with C216A
notes: range 428-491; Expressed from pLi285; also called Mdm2_C464A

In assay [1] the target is T1, cLuc-linker-HA (Photinus pyralis (Common eastern …, UniProt P08659 398-547 = luciferase)).
T1 construct: Expressed from pLi635, no fusion partner; also called cLuc-HA; cLuc alone; not shown: linker-HA
In words: quantitative ReBiL assay in U2OS cells (FIG. 17D).

Assay [2] concerns the target TAT-PMI. In words: lysate BiLC (FIG. 13B); disruption of nLuc-p53 / cLuc-Mdm4.
The target in assay [3] is T2, nLuc-linker-HA-Ube2t (UniProt Q9NPD8 1-197, limits assumed).
T2 construct: Expressed from pLi505 and pLi506; also called nLuc-Ube2t; nLuc-Linker1-HA-Ube2t; not shown: linker-HA
In words: ReBiL BiLC in living U2OS cells at 35° C.

The target in assay [4] is T2, nLuc-linker-HA-Ube2t. Description: ReBiL BiLC in living U2OS cells at 35° C (FIG. 23C).
For assay [5], the target named is B6. In words: BiLC in cell lysate with PPI lysis buffer PLB; reference is the Mdm4_RING / Mdm2_RING_C464A pair.
Assay [6] has as its target B5. In words: BiLC in U2OS cell lysates, three lysis buffers.
For assay [7], the target named is B5. Description: BiLC in cells and in cell lysate (FIGS. 16 and 12).

T2 sequence (Q9NPD8 whole entry): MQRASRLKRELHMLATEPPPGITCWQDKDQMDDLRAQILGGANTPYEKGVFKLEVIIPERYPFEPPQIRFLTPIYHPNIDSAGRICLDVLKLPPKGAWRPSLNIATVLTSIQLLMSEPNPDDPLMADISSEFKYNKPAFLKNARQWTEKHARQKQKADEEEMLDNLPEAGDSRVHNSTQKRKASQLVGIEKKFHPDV

Turning to B1, the binding result in assay [1] was “no binding”.
On to B2, for which the binding result in assay [2] is given as “binds”.
Consider B3, for which the binding result in assay [3] is given as “binds”.
As to B4, the binding result in assay [4] is on record as “no binding”.
For B5, the “BiLC signal (wild type) to noise (mutant) ratio” value in assay [5] was over 1000 fold.
In the case of B6, the binding result in assay [6] is on record as “binds”.
B7: in assay [7], the binding result is “no binding”.
